From patent US20230248855A1 (ACTINIUM PHARMACEUTICALS, published 2023) come the findings set out here.

A word on the EC50: it is the midpoint of the concentration-response curve.

The assay has as its target T1, human recombinant HER3 (human, UniProt P21860 20-643).
T1 construct: Plate-coated recombinant protein in the ELISA
In words: ELISA, plate coated with human recombinant HER3, anti-human IgG F(ab')2-HRP detection. How it is done:
A secondary antibody (Goat Anti-human IgG F(ab′)20-HRP) was added and incubated for 30 min on ice followed by color development using […] for 10 min.
A general note: In an ELISA, binding on a coated surface is turned into a signal by an enzyme label.

T1 sequence (P21860 20-643 limits assumed): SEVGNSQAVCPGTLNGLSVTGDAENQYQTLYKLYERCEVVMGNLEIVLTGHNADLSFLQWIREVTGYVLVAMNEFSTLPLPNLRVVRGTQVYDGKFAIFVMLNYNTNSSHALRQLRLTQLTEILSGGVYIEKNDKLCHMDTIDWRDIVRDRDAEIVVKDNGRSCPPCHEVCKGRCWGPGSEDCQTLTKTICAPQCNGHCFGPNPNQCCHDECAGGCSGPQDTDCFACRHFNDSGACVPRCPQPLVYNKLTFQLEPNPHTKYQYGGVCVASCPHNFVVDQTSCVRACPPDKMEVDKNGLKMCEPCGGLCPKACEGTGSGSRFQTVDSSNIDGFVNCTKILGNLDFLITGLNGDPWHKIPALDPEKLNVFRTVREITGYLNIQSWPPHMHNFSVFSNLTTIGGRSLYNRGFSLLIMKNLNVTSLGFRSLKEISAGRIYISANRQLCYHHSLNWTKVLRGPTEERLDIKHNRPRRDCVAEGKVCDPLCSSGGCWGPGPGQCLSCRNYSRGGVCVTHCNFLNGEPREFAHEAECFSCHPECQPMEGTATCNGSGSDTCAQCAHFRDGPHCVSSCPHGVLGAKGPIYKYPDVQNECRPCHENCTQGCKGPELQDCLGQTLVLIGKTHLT

B1: 225Ac-HER3-ARC (Ac225 labeled DOTA-conjugated anti-HER3 monoclonal antibody) (antibody, human IgG1, kappa, V domains shown)
VH: QVQLVESGGGLVKPGGSLRLSCAASGFTFSDYAMSWIRQAPGKGLEWVSTISDGGTYTYYPDSVKGRFTISRDNAKNSLYLQMNSLRAEDTAVYYCAREWGDYDGFDYWGQGTLVTVSS
VL: DIQMTQSPSSLSASVGDRVTITCRASQEISGYLSWYQQKPGKAPKRLIYAASTLDSGVPSRFSGSGSGTEFTLTISSLQPEDFATYYCLQYDSYPYTFGQGTKLEIKR
modifications: DOTA chelator conjugated using p-SCN-Bn-DOTA and chelating Actinium-225; sites and chain not stated
As to B1, the EC50 was found to be 1.7 ng/mL.

B2: anti-HER3 IgG monoclonal antibody consisting of heavy chain SEQ ID NO:77 and light chain SEQ ID NO:78 (unmodified) (antibody, V domains shown)
VH: B1 VH
VL: B1 VL
notes: IgG, detected with an anti-human IgG secondary antibody; also called unmodified anti-HER3 antibody; unmodified anti-HER3 mAb
As to B2, the EC50 is 2.2 ng/mL.
